B1: Ssa1-D158N, purified (natural protein)
chain: not shown
notes: Ssa1, cytosolic Hsp70 of S. cerevisiae, with D158N; the methods say that the tag was removed; not shown: His6, N-terminal, cleaved
B2: Ssa1-T175N, purified (natural protein)
chain: not shown
notes: Ssa1, cytosolic Hsp70 of S. cerevisiae, with T175N; the methods say that the tag was removed; not shown: His6, N-terminal, cleaved
B3: His6-Ydj1 (natural protein, S. cerevisiae, UniProt P25491 1-409, looked up)
chain: MVKETKFYDILGVPVTATDVEIKKAYRKCALKYHPDKNPSEEAAEKFKEASAAYEILSDPEKRDIYDQFGEDGLSGAGGAGGFPGGGFGFGDDIFSQFFGAGGAQRPRGPQRGKDIKHEISASLEELYKGRTAKLALNKQILCKECEGRGGKKGAVKKCTSCNGQGIKFVTRQMGPMIQRFQTECDVCHGTGDIIDPKDRCKSCNGKKVENERKILEVHVEPGMKDGQRIVFKGEADQAPDVIPGDVVFIVSERPHKSFKRDGDDLVYEAEIDLLTAIAGGEFALEHVSGDWLKVGIVPGEVIAPGMRKVIEGKGMPIPKYGGYGNLIIKFTIKFPENHFTSEENLKKLEEILPPRIVPAIPKKATVDECVLADFDPAKYNRTRASRGGANYDSDEEEQGGEGVQCASQ
notes: Ydj1, Hsp40 co-chaperone of S. cerevisiae; His6 is named and used for capture in the pull-down; also called Hsp40
B4: Ssa1 (wt), purified (natural protein)
chain: not shown
notes: Ssa1, cytosolic Hsp70 of S. cerevisiae; the methods say that the tag was removed; also called wt-Ssa1; wt Ssa1; not shown: His6, N-terminal, cleaved

What was measured:
[1] = target: B3; test: cell-based or functional assay
[2] = target: T1, Hsp82, purified (S. cerevisiae, UniProt P02829 1-709); test: cell-based or functional assay
T1 sequence (P02829 whole entry): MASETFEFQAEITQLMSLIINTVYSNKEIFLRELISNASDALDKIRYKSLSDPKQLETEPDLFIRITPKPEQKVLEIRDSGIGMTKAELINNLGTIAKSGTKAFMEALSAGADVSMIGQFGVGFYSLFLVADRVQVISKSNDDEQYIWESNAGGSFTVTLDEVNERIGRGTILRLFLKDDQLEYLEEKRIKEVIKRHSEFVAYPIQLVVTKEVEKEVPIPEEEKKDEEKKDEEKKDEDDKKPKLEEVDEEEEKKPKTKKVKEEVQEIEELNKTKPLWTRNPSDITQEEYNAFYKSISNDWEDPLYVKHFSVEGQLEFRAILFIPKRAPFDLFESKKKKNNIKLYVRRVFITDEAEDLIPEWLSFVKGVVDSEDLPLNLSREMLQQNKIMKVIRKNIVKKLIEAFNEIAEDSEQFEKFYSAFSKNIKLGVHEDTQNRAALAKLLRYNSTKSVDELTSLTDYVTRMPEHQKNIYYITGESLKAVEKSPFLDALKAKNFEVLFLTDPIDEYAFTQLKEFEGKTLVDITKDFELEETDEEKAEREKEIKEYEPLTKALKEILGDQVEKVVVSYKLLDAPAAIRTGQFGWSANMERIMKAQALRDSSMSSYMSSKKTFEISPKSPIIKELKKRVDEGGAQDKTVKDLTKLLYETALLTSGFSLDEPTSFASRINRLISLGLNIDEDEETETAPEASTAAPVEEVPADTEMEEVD

[3] = target: T1, Hsp82, purified; test: BLI; Octet K2, 30°C; Hsp82 immobilised on AR2G biosensors by amine coupling; Hsp70 1.0 uM as analyte in 25 mM Hepes pH 7.4, 150 mM NaCl, 20 mM MgCl2, 20 mM KCl, 0.1% Tween-20, 0.05% Triton X-100, 1 mM ATP; association and dissociation 200 s each; settings: both partners purified
[4] = target: B4; test: BLI; Ssa1, Ssa2, Ssa3 and Ssa4 with Ydj1; set-up not told here (as in ref. 26)
[5] = target: B2; test: BLI; Ydj1 (0.75 uM) immobilised on the biosensor, Ssa Hsp70 at varying concentrations as analyte, with 5 mM ATP; settings: both partners purified
[6] = target: B1; test: as above; settings: both partners purified

refolding of heat-denatured luciferase by Hsp70 with Ydj1, fold, time course to 30 min (wt Ssa1:Ydj1: 30-fold) [1] [fold]	fold increase in luciferase refolding upon addition of Hsp90 (Hsp82) and Sti1 to a reaction with Ydj1 and Hsp70 (wt Ssa1: 4) [2] [fold]	fold by which the BLI response of wt-Ssa1 at equilibrium is higher than that of this mutant [3] [fold]	binding result [4]	binding result [5]	binding result [6]	binding result [3]	Binder
~60	2	~2					B1
~60	2	~4					B2
			binds	binds	binds		B3
						binds	B4
